# In US12338268B2, “Compositions and methods for treating protein aggregation-associated diseases” (The Board of Trustees of the Leland Stanford Junior …, priority 2019, dated 2025):
# B1: NAC: nascent polypeptide-associated complex, heterodimer of αNAC and βNAC; species not given at the place (C. elegans icd-1/icd-2 when overexpressed in worms) (protein)
# chain 1: MTGSTETRQKEVKEPQVDVSDDSDNEAVEQELTEEQRRVAEAAGLGDHIDKQAKQSRSEKKARKLFSKLGLKQVTGVSRVCIRKSKNILFVINKPDVFKSPGSDTYIIFGEAKIEDLTQHAQMSAIENLKPTREAPQLKTVEEDENEDVEEDSTGIEEKDIELVISQANTTRNKAIRALKEADNDIVNAIMSLTM
# chain 2: MMDSKAIAERIKKLQAQQEHVRIGGKGTPRRKKKVIHKTAAADDKKLQSNLKKLSVTNIPGIEEVNMIKDDGTVIHFNNPKVQTSVPANTFSVTGSADNKQITEMLPGILNQLGPESLTHLKKLANNVTKLGPDGKGEDEDVPELVGDFDAASKNETKADEQ
# Experiments:
# FlucDM-EGFP = molecular target: T1, FlucDM-EGFP (Photinus pyralis, UniProt P08659, R188Q/R261Q); assay: FlucDM-EGFP aggregation after heat-shock in C. elegans; type: in vivo; details: overexpressed in muscle cells; heat-shock 1 h, 33° C.; 24 h recovery at 20° C.
# T1 construct: expressed in transfected cells; host or cells: C. elegans muscle cells (transgenic strain, unc-54 promoter)
# Protocol: We further investigated NAC activity on luciferase refolding in vivo using a C. elegans strain expressing a structurally destabilized version of luciferase fused to EGFP (FlucDM-EGFP) in muscle cells (Gupta et al., 2011). This protein is soluble at moderate temperature but aggregates upon heat stress. After heat-shock (1 h, 33° C.) of worms, FlucDM-EGFP formed large punctate aggregates which were still evident in control animals after 24 h recovery at 20° C. (FIG. 4B, “ev”). […] Thus, efficient luciferase refolding by NAC depends on N-βNAC, in vitro and in vivo.
# Worms were cultured according to standard techniques with E. coli OP50 as food source (Brenner, 1974). Transgenic strains were generated using standard microinjection protocols (Mello and Fire, 1995). Constructs for overexpression of NAC in body wall muscles were generated by cloning the coding sequences of icd-1 (βNAC) and icd-2 (αNAC) into a vector containing the myo-3 promoter and the unc-54 3′-untranslated region (UTR). The NAC genes were N-terminally tagged with 3×FLAG. Mutant NAC constructs were generated by standard mutagenesis protocols. AM140 (unc-54p::Q35::YFP) and FlucDM-EGFP (unc-54p::luciferase::GFP) worms were injected with 25 ng/μl of each NAC plasmid together with myo-2p::mCherry (2.5 ng/μl) and DNA ladder (100 ng/μl, GeneRuler 1 kb, Thermo Scientific). […]
# Aβ40 = molecular target: T2, Aβ40 (Homo sapiens, UniProt P05067); assay: Chemical crosslinking (BS3) and mass spectrometry of NAC-Aβ40 complexes; type: binding; details: NAC and Aβ40 both 18 μM, 37° C. 2 h
# T2 construct: Aβ40 peptide was expressed and purified as described previously; made in house; host or cells: E. coli BL21 (DE3)
# Protocol: Aβ40 (18 μM) was incubated with purified NAC in a 1:1 molar ratio in Aβ aggregation buffer (20 mM sodium phosphate pH 7.5, 0.2 mM EDTA, 0.01% (w/v) NaN3) at 37° C. for 2 h. BS^3-h^12d^12 was added to the proteins at 20× molar excess and incubated for 30 min at 37° C. before quenching with 50 mM NH4HCO3. Crosslinked samples were gel-filtrated using a Superdex 75 column (GE Healthcare) and fractions containing crosslinked Aβ40-NAC complexes subjected to co-immunoprecipitation using Aβ antibody 6E10 (Biozol). Captured proteins were denatured with 1×SDS sample buffer under non-reducing conditions to avoid splitting of the antibody in heavy and light chains.
# Gel pieces containing the crosslinked complexes were washed with 25 mM ammonium bicarbonate (pH 7.8) for 1 h with shaking. The solution was removed and the pieces destained three times with 25 mM ammonium bicarbonate in 60% acetonitrile. Gel pieces were dehydrated with 100% acetonitrile for 10 min and left to air-dry in a laminar flowhood for 1 h. Rehydration of the gel pieces was achieved by adding 0.1 mg/ml trypsin solution and incubating the samples on ice for 30 min. Excess trypsin was removed and the samples were incubated at 37° C. and 1000 rpm overnight. […] The extracts were pooled and concentrated using a SpeedVac before being analyzed using a nanoACQUITY LC-system coupled to a Synapt HDMS G2Si mass spectrometer. […]
# [1] = molecular target: GdmCl-denatured firefly luciferase (Photinus pyralis, UniProt P08659); assay: Luciferase refolding assay; type: biochemical; details: denatured luciferase preincubated 1:1 for 15 min at room temperature before adding Hsp70/Hsp40
# [2] = molecular target: T3, mutant Huntingtin exon 1 (mHttQ51) (Homo sapiens, UniProt P42858, INS38QQQQQQQQQQQQQQQQQQQQQQQQQQQQQQQ); assay: In vitro filter trap aggregation assay of mutant Huntingtin exon 1; type: biochemical
# T3 construct: mutant Huntingtin exon 1 containing a pathogenic stretch of 51 glutamines (mHttQ51); GST (N, cleaved yes); made in house; host or cells: E. coli Rosetta 2(DE3) pLysS
# Protocol: Mutant Huntingtin and PolyQ51 aggregation reactions were performed at concentration 3 μM of mHttQ51, 0.044 Units/μl acTEV protease (Invitrogen, Carlsbad, CA, USA), and respective concentrations of Ovalbumin (Sigma) or purified NAC chaperone variants. Aggregation was conducted in TEV reaction buffer (Invitrogen) and incubated at 30° C. AtxQ78 was buffer exchanged into TEV reaction buffer using 7K MWCO Zeba Spin Desalting Columns (Thermo Fisher) to initiate aggregation. AtxQ78 aggregation reactions were performed at 30 μM of Ataxin-3 in reaction buffer (20 mM sodium phosphate pH 7.5, 25 mM NaCl, 6 mM MgCl2, 2 mM DTT, 5% (v/v) glycerol) and incubated at 37° C. Samples at varied time-points were then taken and combined in a 1:1 ratio with a 4% (w/v) SDS, 100 mM DTT solution, boiled for 5 min at 95° C., and stored at −20° C. Samples were then filtered through a 0.22 μm cellulose acetate membrane (Whatman) and washed with 0.1% (w/v) SDS. Membrane was probed using an S-tag antibody (Abcam) for mHttQ51 and PolyQ51, and with a His-tag antibody (Abcam) for AtxQ78.
# α-synuclein = α-synuclein (Homo sapiens, UniProt P37840); details: Martin et al., 2018; cited from earlier work
# T3 sequence (P42858 with tags, fused parts or gaps with the stated changes limits assumed): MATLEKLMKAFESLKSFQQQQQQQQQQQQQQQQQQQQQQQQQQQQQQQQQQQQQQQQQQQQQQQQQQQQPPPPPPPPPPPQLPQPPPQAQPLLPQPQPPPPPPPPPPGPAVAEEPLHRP
# T1 sequence (P08659 whole entry R188Q/R261Q): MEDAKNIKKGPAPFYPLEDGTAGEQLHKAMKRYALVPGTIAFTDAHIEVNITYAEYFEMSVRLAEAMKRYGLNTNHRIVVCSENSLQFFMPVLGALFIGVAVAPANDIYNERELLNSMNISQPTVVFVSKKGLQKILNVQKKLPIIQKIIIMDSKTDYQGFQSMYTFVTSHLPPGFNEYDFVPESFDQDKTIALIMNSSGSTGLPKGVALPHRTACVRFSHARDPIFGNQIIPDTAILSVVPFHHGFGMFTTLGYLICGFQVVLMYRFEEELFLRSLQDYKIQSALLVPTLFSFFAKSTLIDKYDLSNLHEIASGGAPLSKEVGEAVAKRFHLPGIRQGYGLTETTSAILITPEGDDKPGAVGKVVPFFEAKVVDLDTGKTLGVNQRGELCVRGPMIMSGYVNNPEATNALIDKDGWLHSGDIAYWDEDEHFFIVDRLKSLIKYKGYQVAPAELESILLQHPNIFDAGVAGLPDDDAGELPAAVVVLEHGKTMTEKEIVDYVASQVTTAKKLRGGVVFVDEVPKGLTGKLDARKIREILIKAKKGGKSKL
# Chain of GdmCl-denatured firefly luciferase (P08659 whole entry): as the sequence (P08659 whole entry R188Q/R261Q) above, with Q188R, Q261R counted along it
molecule,measurement,setting,value
B1,FlucDM-EGFP aggregates after heat-shock and recovery,FlucDM-EGFP,fully revert back to diffuse GFP signal
same,interaction with Aβ40 (crosslinking-MS),Aβ40,interaction of Aβ40 with the N-terminal domains of NAC
same,luciferase refolding by the Hsp70/Hsp40 system,[1],strongly enhanced over levels of just Hsp70/Hsp40 refolding
same,concentration dependence of mHttQ51 aggregation suppression,"[2]; 1×, 5× or 10× molar excess of human NAC",concentration dependent
same,disaggregation of preformed mHttQ51 aggregates,"[2]; 6-hour time delay between initiation of aggregation and addition, 5× molar excess",did not disaggregate preformed mHttQ51 aggregates
same,aggregation of α-synuclein,α-synuclein,suppresses aggregation
